Starred links: 1 amine or outer side, 2 acyl side, 3 side chain; linkers in the order of their positions; H or OH if unused. Positions of bridges follow the written chain, without caps; N, C: chain ends. Non-standard residues stand in square brackets, D forms with d. Groups on a side chain read outwards from the residue. *: point of attachment. Trp(1-Me) = Cn1cc(C[C@H](N)C(=O)O)c2ccccc21; C18 diacid = O=C(O)CCCCCCCCCCCCCCCCC(=O)*; C16 diacid = O=C(O)CCCCCCCCCCCCCCC(=O)*; γGlu = O=C(O)[C@H](CCC(=O)[*:2])N[*:1]; hCys = N[C@@H](CCS)C(=O)O; AEEA = NCCOCCOCC(=O)O; Sar = CNCC(=O)O
What was measured:
Human C3 [1] = target: T1, Human C3 (human, UniProt P01024 23-1663); assay: SPR, C3 immobilised
T1 construct: In SPR the bought human C3 was immobilised on CM5 chips by amine coupling; In the haemolysis assay the C3 is that of diluted human serum; also called complement C3
T1 sequence (P01024 23-1663 limits assumed): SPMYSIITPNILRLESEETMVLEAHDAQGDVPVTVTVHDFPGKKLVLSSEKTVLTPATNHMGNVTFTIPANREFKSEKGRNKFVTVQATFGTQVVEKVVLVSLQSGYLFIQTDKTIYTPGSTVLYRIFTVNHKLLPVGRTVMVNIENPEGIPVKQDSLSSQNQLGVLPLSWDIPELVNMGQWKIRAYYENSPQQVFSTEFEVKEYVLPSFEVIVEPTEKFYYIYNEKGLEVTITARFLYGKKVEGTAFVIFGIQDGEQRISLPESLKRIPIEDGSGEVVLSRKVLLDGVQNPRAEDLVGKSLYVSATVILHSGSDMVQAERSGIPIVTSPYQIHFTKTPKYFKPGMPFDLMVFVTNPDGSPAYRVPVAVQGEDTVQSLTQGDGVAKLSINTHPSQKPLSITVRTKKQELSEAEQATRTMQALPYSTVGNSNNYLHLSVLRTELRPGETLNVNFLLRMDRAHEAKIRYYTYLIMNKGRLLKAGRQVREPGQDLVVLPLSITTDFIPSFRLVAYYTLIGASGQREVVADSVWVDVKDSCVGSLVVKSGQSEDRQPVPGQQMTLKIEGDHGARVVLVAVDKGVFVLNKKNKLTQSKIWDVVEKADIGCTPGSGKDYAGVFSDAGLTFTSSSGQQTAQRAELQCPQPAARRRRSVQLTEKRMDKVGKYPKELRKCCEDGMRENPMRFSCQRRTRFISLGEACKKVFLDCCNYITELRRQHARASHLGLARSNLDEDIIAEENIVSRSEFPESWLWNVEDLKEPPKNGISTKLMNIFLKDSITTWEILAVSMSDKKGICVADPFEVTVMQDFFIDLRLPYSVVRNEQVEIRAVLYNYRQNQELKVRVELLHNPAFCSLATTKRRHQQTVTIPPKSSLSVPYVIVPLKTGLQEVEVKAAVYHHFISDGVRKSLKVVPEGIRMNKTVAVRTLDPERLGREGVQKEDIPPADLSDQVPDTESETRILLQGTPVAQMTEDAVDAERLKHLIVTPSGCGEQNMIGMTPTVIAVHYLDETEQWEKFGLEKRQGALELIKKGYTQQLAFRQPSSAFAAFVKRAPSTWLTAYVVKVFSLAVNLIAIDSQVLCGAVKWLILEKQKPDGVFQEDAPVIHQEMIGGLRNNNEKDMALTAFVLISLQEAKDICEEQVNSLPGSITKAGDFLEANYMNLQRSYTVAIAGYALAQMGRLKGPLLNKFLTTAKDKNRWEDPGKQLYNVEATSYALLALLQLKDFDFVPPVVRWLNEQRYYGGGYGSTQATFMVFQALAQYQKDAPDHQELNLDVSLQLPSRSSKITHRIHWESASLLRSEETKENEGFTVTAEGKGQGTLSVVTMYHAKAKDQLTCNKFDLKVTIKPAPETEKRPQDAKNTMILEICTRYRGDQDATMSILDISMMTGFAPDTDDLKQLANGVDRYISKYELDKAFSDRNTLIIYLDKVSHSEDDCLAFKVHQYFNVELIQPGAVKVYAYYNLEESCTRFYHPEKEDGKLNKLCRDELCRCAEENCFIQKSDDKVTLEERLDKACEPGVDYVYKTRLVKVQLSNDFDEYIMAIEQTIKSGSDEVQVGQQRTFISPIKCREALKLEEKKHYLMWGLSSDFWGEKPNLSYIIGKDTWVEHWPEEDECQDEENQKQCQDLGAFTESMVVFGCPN
Experimental: Surface plasmon resonance (SPR) was used to characterize peptides with respect to their binding affinity (Kd) for C3. Human C3 (Complement tech cat #A1 13c) was immobilised on individual flow cells of CM5 sensor chips (GE Healthcare) using standard amine coupling to a density of approximately 3000 resonance units (RU) in a buffer consisting of 10 mM phosphate pH 7.4, 150 mM NaCl, 0.05% Tween20.
For interaction experiments a multi-cycle experiment approach was used and performed using either a Biacore™ T200 or Biacore™ X100 instrument (GE Healthcare) at 25° C. Peptides were injected in increasing concentration series (5-8 different concentrations) for 60-120 s at a flow rate of 30 μL/min in a buffer consisting of 10 mM Tris buffer at pH 7.4, with 150 mM NaCl and 0.05% Tween20. This was followed by a dissociation period for up to 10 min. The C3 surface was regenerated between runs by a 45 s injection of 3 M MgCl₂.
Sensorgrams were double-referenced (reference surface, blanks) prior to analysis of the kinetic profiles by globally fitting data to a 1:1 Langmuir binding model to obtain association and dissociation rates for calculation of the equilibrium dissociation constant Kd. Each peptide was tested at in at least 2 independent experiments.

Human C3 [2] = target: T1, Human C3; assay: cell-based or functional assay

| Binder | Kd (Human C3 [1]) [nM] | IC50[nM], inhibition of hemolysis (Human C3 [2]) [nM] |
| --- | --- | --- |
| Ac-SEYCI[Trp(1-Me)]QDWGEHRC[Sar]EGE[AEEA][AEEA]K([γGlu-Gly-γGlu-C18 diacid])-NH2 (disulfide 4-14) [Compound 117] | 24 | < 250 |
| Ac-SEFCI[Trp(1-Me)]QDWGEHRCTEGE[AEEA][AEEA]K([γGlu-Gly-γGlu-C18 diacid])-NH2 (disulfide 4-14) [Compound 126] | 5.2 | < 100 |
| SEFAIWQDWGEHRCGEGEXXK (not fully specified; N-acetyl; C-terminal amide; delta-cystathionine (Ctt2) thioether bridge A4-hCys14 (hCys written C); W6 is 1-Me-Trp; G15 is Sar; X19 and X20 are Peg3; K21 side chain bears [17-carboxy-heptadecanoyl][γGlu]G[γGlu]) [Compound 146] | 0.43 | < 100 |
| SEFAIWQEWGEHRCGEGEXXK (not fully specified; N-acetyl; C-terminal amide; delta-cystathionine (Ctt2) thioether bridge A4-hCys14 (hCys written C); W6 is 1-Me-Trp; G15 is Sar; X19 and X20 are Peg3; K21 side chain bears [17-carboxy-heptadecanoyl][γGlu]G[γGlu]) [Compound 153] | 11.1 | < 100 |
| Ac-EGSAYCI[Trp(1-Me)]QDWGEHRC[Sar]EK[γGlu]K([AEEA-AEEA-γGlu-C18 diacid])-NH2 (disulfide 6-16; SMILES CC[C@H](C)[C@@H]1NC(=O)[C@@H](NC(=O)[C@H](Cc2ccc(O)cc2)NC(=O)[C@H](C)NC(=O)[C@H](CO)NC(=O)CNC(=O)[C@H](CCC(=O)O)NC(C)=O)CSSC[C@@H](C(=O)N(C)CC(=O)N[C@@H](CCC(=O)O)C(=O)N[C@@H](CCCCN)C(=O)N[C@@H](CCC(=O)N[C@@H](CCCCNC(=O)COCCOCCNC(=O)COCCOCCNC(=O)CC[C@H](NC(=O)CCCCCCCCCCCCCCCCC(=O)O)C(=O)O)C(N)=O)C(=O)O)NC(=O)[C@H](CCCNC(=N)N)NC(=O)[C@H](Cc2c[nH]cn2)NC(=O)[C@H](CCC(=O)O)NC(=O)CNC(=O)[C@H](Cc2c[nH]c3ccccc23)NC(=O)[C@H](CC(=O)O)NC(=O)[C@H](CCC(N)=O)NC(=O)[C@H](Cc2cn(C)c3ccccc23)NC1=O) [Compound 111] | 8.2 | < 100 |
| {C16 diacid}-EGSEYCI[Trp(1-Me)]QDWGEHRC[Sar]E-NH2 (disulfide 6-16; SMILES CC[C@H](C)[C@@H]1NC(=O)[C@@H](NC(=O)[C@H](Cc2ccc(O)cc2)NC(=O)[C@H](CCC(=O)O)NC(=O)[C@H](CO)NC(=O)CNC(=O)[C@H](CCC(=O)O)NC(=O)CCCCCCCCCCCCCCC(=O)O)CSSC[C@@H](C(=O)N(C)CC(=O)N[C@@H](CCC(=O)O)C(N)=O)NC(=O)[C@H](CCCNC(=N)N)NC(=O)[C@H](Cc2c[nH]cn2)NC(=O)[C@H](CCC(=O)O)NC(=O)CNC(=O)[C@H](Cc2c[nH]c3ccccc23)NC(=O)[C@H](CC(=O)O)NC(=O)[C@H](CCC(N)=O)NC(=O)[C@H](Cc2cn(C)c3ccccc23)NC1=O) [Compound 107] | 6.1 | < 100 |
| Ac-EGSAYCI[Trp(1-Me)]QDWGEHRC[Sar]EGK([AEEA-AEEA-γGlu-C16 diacid])-NH2 (disulfide 6-16; SMILES CC[C@H](C)[C@@H]1NC(=O)[C@@H](NC(=O)[C@H](Cc2ccc(O)cc2)NC(=O)[C@H](C)NC(=O)[C@H](CO)NC(=O)CNC(=O)[C@H](CCC(=O)O)NC(C)=O)CSSC[C@@H](C(=O)N(C)CC(=O)N[C@@H](CCC(=O)O)C(=O)NCC(=O)N[C@@H](CCCCNC(=O)COCCOCCNC(=O)COCCOCCNC(=O)CC[C@H](NC(=O)CCCCCCCCCCCCCCC(=O)O)C(=O)O)C(N)=O)NC(=O)[C@H](CCCNC(=N)N)NC(=O)[C@H](Cc2c[nH]cn2)NC(=O)[C@H](CCC(=O)O)NC(=O)CNC(=O)[C@H](Cc2c[nH]c3ccccc23)NC(=O)[C@H](CC(=O)O)NC(=O)[C@H](CCC(N)=O)NC(=O)[C@H](Cc2cn(C)c3ccccc23)NC1=O) [Compound 104] | 34 | < 100 |
| Ac-SEFCI[Trp(1-Me)]QDWGEHRC[Sar]EGAK([AEEA-γGlu-AEEA-Gly-γGlu-C18 diacid])-NH2 (disulfide 4-14; SMILES CC[C@H](C)[C@@H]1NC(=O)[C@@H](NC(=O)[C@H](Cc2ccccc2)NC(=O)[C@H](CCC(=O)O)NC(=O)[C@H](CO)NC(C)=O)CSSC[C@@H](C(=O)N(C)CC(=O)N[C@@H](CCC(=O)O)C(=O)NCC(=O)N[C@@H](C)C(=O)N[C@@H](CCCCNC(=O)COCCOCCNC(=O)CC[C@H](NC(=O)COCCOCCNC(=O)CNC(=O)CC[C@H](NC(=O)CCCCCCCCCCCCCCCCC(=O)O)C(=O)O)C(=O)O)C(N)=O)NC(=O)[C@H](CCCNC(=N)N)NC(=O)[C@H](Cc2c[nH]cn2)NC(=O)[C@H](CCC(=O)O)NC(=O)CNC(=O)[C@H](Cc2c[nH]c3ccccc23)NC(=O)[C@H](CC(=O)O)NC(=O)[C@H](CCC(N)=O)NC(=O)[C@H](Cc2cn(C)c3ccccc23)NC1=O) [Compound 119] | 9.8 | < 100 |
| Ac-SEYCI[Trp(1-Me)]QEWGEHRC[Sar]EGAK([AEEA-γGlu-AEEA-Gly-γGlu-C18 diacid])-NH2 (disulfide 4-14; SMILES CC[C@H](C)[C@@H]1NC(=O)[C@@H](NC(=O)[C@H](Cc2ccc(O)cc2)NC(=O)[C@H](CCC(=O)O)NC(=O)[C@H](CO)NC(C)=O)CSSC[C@@H](C(=O)N(C)CC(=O)N[C@@H](CCC(=O)O)C(=O)NCC(=O)N[C@@H](C)C(=O)N[C@@H](CCCCNC(=O)COCCOCCNC(=O)CC[C@H](NC(=O)COCCOCCNC(=O)CNC(=O)CC[C@H](NC(=O)CCCCCCCCCCCCCCCCC(=O)O)C(=O)O)C(=O)O)C(N)=O)NC(=O)[C@H](CCCNC(=N)N)NC(=O)[C@H](Cc2c[nH]cn2)NC(=O)[C@H](CCC(=O)O)NC(=O)CNC(=O)[C@H](Cc2c[nH]c3ccccc23)NC(=O)[C@H](CCC(=O)O)NC(=O)[C@H](CCC(N)=O)NC(=O)[C@H](Cc2cn(C)c3ccccc23)NC1=O) [Compound 122] | 63 | < 500 |

Continued by falling Kd (Human C3 [1]), values first:

| Kd (Human C3 [1]) [nM] | Binder | IC50[nM], inhibition of hemolysis (Human C3 [2]) [nM] |
| --- | --- | --- |
| 71 | Ac-SEYCI[Trp(1-Me)]QEWGEHRC[Sar]EGE[AEEA][AEEA]K([γGlu-Gly-γGlu-C18 diacid])-NH2 (disulfide 4-14; SMILES CC[C@H](C)[C@@H]1NC(=O)[C@@H](NC(=O)[C@H](Cc2ccc(O)cc2)NC(=O)[C@H](CCC(=O)O)NC(=O)[C@H](CO)NC(C)=O)CSSC[C@@H](C(=O)N(C)CC(=O)N[C@@H](CCC(=O)O)C(=O)NCC(=O)N[C@@H](CCC(=O)O)C(=O)NCCOCCOCC(=O)NCCOCCOCC(=O)N[C@@H](CCCCNC(=O)CC[C@H](NC(=O)CNC(=O)CC[C@H](NC(=O)CCCCCCCCCCCCCCCCC(=O)O)C(=O)O)C(=O)O)C(N)=O)NC(=O)[C@H](CCCNC(=N)N)NC(=O)[C@H](Cc2c[nH]cn2)NC(=O)[C@H](CCC(=O)O)NC(=O)CNC(=O)[C@H](Cc2c[nH]c3ccccc23)NC(=O)[C@H](CCC(=O)O)NC(=O)[C@H](CCC(N)=O)NC(=O)[C@H](Cc2cn(C)c3ccccc23)NC1=O) [Compound 125] | < 500 |
| 57.4 | Ac-SEF[hCys]I[Trp(1-Me)]QEWGEHRA[Sar]EGE[AEEA][AEEA]K([γGlu-Gly-γGlu-C18 diacid])-NH2 (thioether 4-14) [Compound 167] | < 500 |
| 31 | Ac-SEFCI[Trp(1-Me)]QEWGEHRC[Sar]EGE[AEEA][AEEA]K([γGlu-Gly-γGlu-C18 diacid])-NH2 (disulfide 4-14; SMILES CC[C@H](C)[C@@H]1NC(=O)[C@@H](NC(=O)[C@H](Cc2ccccc2)NC(=O)[C@H](CCC(=O)O)NC(=O)[C@H](CO)NC(C)=O)CSSC[C@@H](C(=O)N(C)CC(=O)N[C@@H](CCC(=O)O)C(=O)NCC(=O)N[C@@H](CCC(=O)O)C(=O)NCCOCCOCC(=O)NCCOCCOCC(=O)N[C@@H](CCCCNC(=O)CC[C@H](NC(=O)CNC(=O)CC[C@H](NC(=O)CCCCCCCCCCCCCCCCC(=O)O)C(=O)O)C(=O)O)C(N)=O)NC(=O)[C@H](CCCNC(=N)N)NC(=O)[C@H](Cc2c[nH]cn2)NC(=O)[C@H](CCC(=O)O)NC(=O)CNC(=O)[C@H](Cc2c[nH]c3ccccc23)NC(=O)[C@H](CCC(=O)O)NC(=O)[C@H](CCC(N)=O)NC(=O)[C@H](Cc2cn(C)c3ccccc23)NC1=O) [Compound 124] | < 100 |
| 3 | Ac-EGSAYCI[Trp(1-Me)]QDWGEHRC[Sar]E-NH2 (disulfide 6-16; SMILES CC[C@H](C)[C@@H]1NC(=O)[C@@H](NC(=O)[C@H](Cc2ccc(O)cc2)NC(=O)[C@H](C)NC(=O)[C@H](CO)NC(=O)CNC(=O)[C@H](CCC(=O)O)NC(C)=O)CSSC[C@@H](C(=O)N(C)CC(=O)N[C@@H](CCC(=O)O)C(N)=O)NC(=O)[C@H](CCCNC(=N)N)NC(=O)[C@H](Cc2c[nH]cn2)NC(=O)[C@H](CCC(=O)O)NC(=O)CNC(=O)[C@H](Cc2c[nH]c3ccccc23)NC(=O)[C@H](CC(=O)O)NC(=O)[C@H](CCC(N)=O)NC(=O)[C@H](Cc2cn(C)c3ccccc23)NC1=O) [Compound 54] | < 100 |
| 0.5 | GEFAIWQDWGEHRCGEAEXXK (not fully specified; N-acetyl; C-terminal amide; delta-cystathionine (Ctt2) thioether bridge A4-hCys14 (hCys written C); W6 is 1-Me-Trp; G10 is Sar; G15 is Sar; X19 and X20 are Peg3; K21 side chain bears [17-carboxy-heptadecanoyl][γGlu]G[γGlu]) [Compound 149] | < 100 |

Source: patent US20220306695A1, “COMPSTATIN ANALOGUES AND THEIR MEDICAL USES” (priority 2019, published 2022)
